In paper PMC4014440:
Residue numbers refer to the chain shown, from its start. Names and notes keep the numbering of the source. Each block holds one binder with its values, some of them ahead of it.

Target: FLAG epitope tagged DLK-1 K162R (FLAG::DLK-1L K162R) (C. elegans)
Assay: co-IP; FLAG::DLK-1 K162R immunoprecipitated from 5 mg of transgenic whole worm lysate (0.1% NP-40 lysis buffer); wild-type or mutant PPM-2::GFP detected by anti-GFP immunoblot; bands quantified with Image J as ratio of PPM-2::GFP in coIP to FLAG::DLK-1 K162R immunoprecipitated

- ratio of PPM-2::GFP in coIP to FLAG::DLK-1 K162R immunoprecipitated: 1.5
B1: PPM-2::GFP R185A (phosphatase trapping mutant of PPM-2) (enzyme)
chain: MGQTLSEPVTKKESASCANENYLVGSSCMQGWRVDMEDAHTHLLSLPDDPKCAFFAVYDGHGGSKVSQYSGINLHKKVVAQKEFSEGNMKEAIEKGFLELDQQMRVDEETKDDVSGTTAVVVLIKEGDVYCGNAGDSRAVSSVVGEARPLSFDHKPSHETEARRIIAAGGWVEFNRVNGNLALSAALGDFAFKNCDTKPAEEQIVTAFPDVITDKLTPDHEFIVLACDGIWDVMTNQEVVDFVREKLAEKRDPQSICEELLTRCLAPDCQMGGLGCDNMTVVLVGLLHGQSPDTLFTKCARPAVFTGVNNEDGDQNQIQQDISRVINNFDGEQRVNAANQEEEEDDNEPAPANFQV

- ratio of PPM-2::GFP in coIP to FLAG::DLK-1 K162R immunoprecipitated: 0.4
B2: PPM-2::GFP (GFP fusion protein of wild-type PPM-2) (enzyme)
chain: B1 chain with A185R
